Laboratory results: US20210364527A1

Molecular target: FA peptide (N-terminal phenylalanine, penultimate alanine; rest of sequence not given)
Assay: fluorescence polarization

Binder | Kd [nM]
PS609 (Bis-atClpS2-V1, Linker 1) (designed binder) MSDSPVDLKPKPKVKPKLERPKLYKVMLLNDDYTPMSFVTVVLKAVFRMSEDTGRRVMMTAHRFGSAVVVVCERDIAETKAKEATDLGKEAGFPLMFTTEPEEGGGSGGGSGGGSGMSDSPVDLKPKPKVKPKLERPKLYKVMLLNDDYTPMSFVTVVLKAVFRMSEDTGRRVMMTAHRFGSAVVVVCERDIAETKAKEATDLGKEAGFPLMFTTEPEEGHHHHHHHHHHGGGSGGGSGGGSGLNDFFEAQKIEWHEGGGSGGGSGGGSGLNDFFEAQKIEWHE | 221
PS611 (Bis-atClpS2-V1, Linker 3) (designed binder) MSDSPVDLKPKPKVKPKLERPKLYKVMLLNDDYTPMSFVTVVLKAVFRMSEDTGRRVMMTAHRFGSAVVVVCERDIAETKAKEATDLGKEAGFPLMFTTEPEEGSAGSAAGSGEFGSAGSAAGSGEFGSAGSAAGSGEFMSDSPVDLKPKPKVKPKLERPKLYKVMLLNDDYTPMSFVTVVLKAVFRMSEDTGRRVMMTAHRFGSAVVVVCERDIAETKAKEATDLGKEAGFPLMFTTEPEEGHHHHHHHHHHGGGSGGGSGGGSGLNDFFEAQKIEWHEGGGSGGGSGGGSGLNDFFEAQKIEWHE | 137
